Sequences and labels used below:
B1: [PPE172_(15)], recombinant polyprotein of 15 tandem repeats of the human titin exon 172 PEVK module (other)
chain: PEPPKEVVPEKKAPVAPPKKPEVPPVKVPEPPKEVVPEKKAPVAPPKKPEVPPVKVPEPPKEVVPEKKAPVAPPKKPEVPPVKVPEPPKEVVPEKKAPVAPPKKPEVPPVKVPEPPKEVVPEKKAPVAPPKKPEVPPVKVPEPPKEVVPEKKAPVAPPKKPEVPPVKVPEPPKEVVPEKKAPVAPPKKPEVPPVKVPEPPKEVVPEKKAPVAPPKKPEVPPVKVPEPPKEVVPEKKAPVAPPKKPEVPPVKVPEPPKEVVPEKKAPVAPPKKPEVPPVKVPEPPKEVVPEKKAPVAPPKKPEVPPVKVPEPPKEVVPEKKAPVAPPKKPEVPPVKVPEPPKEVVPEKKAPVAPPKKPEVPPVKVPEPPKEVVPEKKAPVAPPKKPEVPPVKVPEPPKEVVPEKKAPVAPPKKPEVPPVKV
B2: nebulin SH3 (domain or fragment, human, UniProt P20929 8466-8525, looked up)
chain: TAGKIFRAMYDYMAADADEVSFKDGDAIINVQAIDEGWMYGTVQRTGRTGMLPANYVEAI

The target in experiment [1] is B2. Briefly: ELISA.
The target in experiment [2] is B2. Briefly: SPR. A general note: Surface plasmon resonance follows binding to a sensor surface in real time, without labels.
Experiment [3] deals with B2. Briefly: ELISA. The source holds these as a separate data set. On the technique in general: ELISA stands for enzyme-linked immunosorbent assay.
Experiment [4] concerns the target B1. Briefly: ELISA.
The target of experiment [5] is B1. Briefly: ELISA.

The values that follow come from article PMC3463739 (Protein expression and purification, 2012).

Like-named read-outs stand apart in the source and are kept apart here.

As usually defined, the Kd is the constant that tells how readily two partners part at equilibrium.

With B1, the Kd with nebulin SH3 [1] was 7 µM; with nebulin SH3 [2] it was 340 µM; with nebulin SH3 [3], 23 µM.

Take B2: the “KD in the presence of 50 μg/ml RT11” value in experiment [4] worked out at 471 µM; in experiment [5], 9.69 µM.
